# T1: wild-type cynomolgus monkey IL-33 (cynomolgus monkey)
# T1 construct: Used reduced (DTT-treated); His6 in the entry; also called cyno IL-33 (WT + DTT); pfe cyno WT IL-33
# T1 chain: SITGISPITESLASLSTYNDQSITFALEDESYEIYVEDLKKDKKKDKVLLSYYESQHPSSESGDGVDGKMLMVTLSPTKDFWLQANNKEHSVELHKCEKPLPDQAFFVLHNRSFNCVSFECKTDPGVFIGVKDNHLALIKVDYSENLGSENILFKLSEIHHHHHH
# T2: human IL-33 WT, reduced with DTT (human, UniProt O95760 112-270)
# T2 construct: Wild-type cysteines, FLAG tag in the entry; reduced with 3 mM DTT before use; also called huIL33 wt; hu IL-33 (WT + DTT)
# T2 sequence: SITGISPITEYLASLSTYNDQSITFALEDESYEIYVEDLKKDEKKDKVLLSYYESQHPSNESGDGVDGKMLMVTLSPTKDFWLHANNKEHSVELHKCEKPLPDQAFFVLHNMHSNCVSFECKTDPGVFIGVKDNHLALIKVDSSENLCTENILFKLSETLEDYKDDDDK
# T3: human IL-33 (mm2) (human, UniProt O95760 112-270)
# T3 construct: Variant in which all four cysteine residues are serine; the entry carries an N-terminal Met and a C-terminal His6; Biotinylated in some assays; also called hIL-33 (mm2); huIL-33 (mm2)
# T3 chain: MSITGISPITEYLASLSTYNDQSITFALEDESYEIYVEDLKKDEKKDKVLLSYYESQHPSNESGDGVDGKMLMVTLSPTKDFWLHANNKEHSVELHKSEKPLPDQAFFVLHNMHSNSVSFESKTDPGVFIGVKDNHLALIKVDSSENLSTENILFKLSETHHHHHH
# T4: cynomolgus monkey IL-33 (cys mut) (cynomolgus monkey)
# T4 construct: Variant in which the three cysteine residues are serine; N-terminal Met and C-terminal His6 in the entry; also called cyno IL-33; cyno IL-33 (cys mut)
# T4 chain: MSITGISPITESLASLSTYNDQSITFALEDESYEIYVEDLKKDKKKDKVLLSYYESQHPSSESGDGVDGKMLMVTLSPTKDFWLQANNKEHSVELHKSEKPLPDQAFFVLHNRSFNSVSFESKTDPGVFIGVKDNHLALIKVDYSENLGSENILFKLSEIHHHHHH
# T5: IL-1α (UniProt P01583 113-271)
# T5 sequence (looked up): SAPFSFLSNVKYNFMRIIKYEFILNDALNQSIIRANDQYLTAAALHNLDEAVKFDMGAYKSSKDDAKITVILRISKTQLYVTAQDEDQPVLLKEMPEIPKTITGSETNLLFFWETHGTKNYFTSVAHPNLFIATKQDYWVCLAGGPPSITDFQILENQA
# T6: IL-36γ (UniProt Q9NZH8 18-169)
# T6 sequence (looked up): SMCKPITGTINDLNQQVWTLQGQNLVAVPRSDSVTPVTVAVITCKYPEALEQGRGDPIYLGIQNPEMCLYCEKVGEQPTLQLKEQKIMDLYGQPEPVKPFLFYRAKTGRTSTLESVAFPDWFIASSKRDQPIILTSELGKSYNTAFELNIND
# T7: IL-18 (UniProt Q14116 37-193)
# T7 sequence (looked up): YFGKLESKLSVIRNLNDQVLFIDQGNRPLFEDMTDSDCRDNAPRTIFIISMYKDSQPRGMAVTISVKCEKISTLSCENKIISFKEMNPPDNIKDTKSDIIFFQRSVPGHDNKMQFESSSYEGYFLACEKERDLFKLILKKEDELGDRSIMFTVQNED
# T8: IL-36α (UniProt Q9UHA7 6-158)
# T8 sequence (looked up): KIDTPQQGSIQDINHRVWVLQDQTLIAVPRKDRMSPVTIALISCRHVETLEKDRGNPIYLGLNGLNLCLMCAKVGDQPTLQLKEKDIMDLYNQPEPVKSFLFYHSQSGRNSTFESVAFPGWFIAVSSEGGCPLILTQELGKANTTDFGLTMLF
# Experiments:
# [1] = biological target: T1, wild-type cynomolgus monkey IL-33; assay: SPR, IL-33 amine-coupled to CM5, Fab in solution, 37 C, Experiment 2
# Method: (§1) Biacore kinetic assays were conducted at 37° C. at a collection rate of 1 Hz on a Biacore T200 instrument (GE Healthcare). Reduced and non-reduced wild-type human IL-33 and reduced wild-type cynomolgus monkey IL-33 were covalently coupled to a CM5 sensor chip (catalogue number BR100530, GE Healthcare) using an amine coupling kit (catalogue number BR100050, GE Healthcare) according to the manufacturer's protocol. Flow cell 1 was activated and blocked for use as a reference flow cell. […] The dilution and running buffer was HBS-EP+(10 mM HEPES pH 7.4, 0.15M NaCl, 3 mM EDTA, 0.05% P-20). Rate constants and affinities were determined by fitting the resulting sensorgram data to a 1:1 model in Biacore T200 Evaluation software version 1.0 (GE Healthcare). […] Kinetic properties of the bivalent IgG cannot be directly compared to those of monovalent Fab fragments and are not presented here.
# [2] = biological target: T2, human IL-33 WT, reduced with DTT; assay: as above
# Method: as §1
# [3] = biological target: T1, wild-type cynomolgus monkey IL-33; assay: SPR, IL-33 amine-coupled to CM5, Fab in solution, 37 C, Experiment 1
# Method: as §1
# [4] = biological target: T2, human IL-33 WT, reduced with DTT; assay: as above
# Method: as §1
# [5] = biological target: T1, wild-type cynomolgus monkey IL-33; assay: SPR, Experiment 1; reference: human IL-33 (WT + DTT)
# Method: as §1
# [6] = biological target: T2, human IL-33 WT, reduced with DTT; assay: SPR, IL-33 amine-coupled to CM5, Fab in solution, 37 C
# Method: (§2) Biacore kinetic assays were conducted at 37° C. at a collection rate of 1 Hz on a Biacore T200 instrument (GE Healthcare). Human IL33 (mm2), cynomolgus monkey IL-33, and reduced huIL33 wt were covalently coupled to a CM5 sensor chip (catalogue number BR100530, GE Healthcare) using an amine coupling kit (catalogue number BR100050, GE Healthcare) according to the manufacturer's protocol. […] The dilution and running buffer was HBS-EP+(10 mM HEPES pH 7.4, 0.15M NaCl, 3 mM EDTA, 0.05% P-20). Rate constants and affinities were determined by fitting the resulting sensorgram data to a 1:1 model in Biacore T200 Evaluation software version 1.0 (GE Healthcare).
# [7] = biological target: T3, human IL-33 (mm2); assay: as above
# Method: as §2
# [8] = biological target: T4, cynomolgus monkey IL-33 (cys mut); assay: as above
# Method: as §2
# [9] = biological target: T1, wild-type cynomolgus monkey IL-33; assay: SPR, Experiment 2; reference: human IL-33 (WT + DTT)
# Method: as §1
# [10] = biological target: T5, IL-1α; assay: SPR (Biacore T200), Fab captured on the chip, cytokine injected
# Excerpt: (§3) The panel of cytokines included IL-1α, IL-1β, IL-18, IL-36α, and IL-36γ.
# [11] = biological target: IL-1β (UniProt P01584 117-269); assay: as above
# Excerpt: as §3
# [12] = biological target: T6, IL-36γ; assay: as above
# Excerpt: as §3
# [13] = biological target: T7, IL-18; assay: as above
# Excerpt: as §3
# [14] = biological target: T8, IL-36α; assay: as above
# Excerpt: as §3
# [15] = biological target: T2, human IL-33 WT, reduced with DTT; assay: SPR, IL-33 amine-coupled to CM5, rat Fab in solution, 37 C
# Method: Parallel studies were performed with non-reduced IL-33 and with IL-33 samples that had been reduced with 3 mM DTT for 3 hr. at room temperature prior to immobilization. […] Flow cell 1 was activated and blocked for use as a reference flow cell. […] Dissociation was monitored for 3600 seconds. Biacore kinetic assays were conducted at 37° C. at a collection rate of 1 Hz on a Biacore T200 instrument (GE Healthcare). Rate constants and affinities were determined by fitting the resulting sensorgram data to a 1:1 model in Biacore T200 Evaluation software version 1.0 (GE Healthcare).
Kd [1],koff [1],kon [1],Kd [2],koff [2],kon [2],Kd [3],koff [3],kon [3],Kd [4],koff [4],kon [4],Ratio of cynomolgus monkey KD/human KD [5],Kd [6],koff [6],kon [6],Kd [7],koff [7],kon [7],Ratio of cynomolgus monkey KD/human KD [9],Binder,further results
0.228 nM,0.00121 s⁻¹,5.32e+06 M⁻¹ s⁻¹,0.101 nM,0.000417 s⁻¹,4.11e+06 M⁻¹ s⁻¹,0.139 nM,0.00062 s⁻¹,4.5e+06 M⁻¹ s⁻¹,0.106 nM,0.00033 s⁻¹,3.13e+06 M⁻¹ s⁻¹,1.3,0.0696 nM,0.000129 s⁻¹,1.86e+06 M⁻¹ s⁻¹,0.013 nM,3.09e-05 s⁻¹,2.42e+06 M⁻¹ s⁻¹,2.3,"IL33-158LS Fab (Fab, V domains shown) VH: EVQLVESGGGLVQPGGSLRLSCAASGFTFSSYWMYWVRQAPGKGLEWVAAITPNAGEDYYPESVKGRFTISRDNAKNSLYLQMNSLRAEDTAVYYCARGHYYYTSYSLGYWGQGTLVTVSS VL: DIQMTQSPSSLSASVGDRVTITCKASQNINKHLDWYQQKPGKAPKLLIYFTNNLQTGVPSRFSGSGSGTDFTLTISSLQPEDFATYYCFQYNQGWTFGGGTKVEIKR",Kd [8]: 0.0104 nM; koff [8]: 1.71e-05 s⁻¹; kon [8]: 1.64e+06 M⁻¹ s⁻¹; binding result [10]: no binding; binding result [11]: no binding; binding result [12]: no binding; binding result [13]: no binding; binding result [14]: no binding
0.218 nM,0.00119 s⁻¹,5.5e+06 M⁻¹ s⁻¹,0.089 nM,0.00035 s⁻¹,3.96e+06 M⁻¹ s⁻¹,0.139 nM,0.000665 s⁻¹,4.81e+06 M⁻¹ s⁻¹,0.091 nM,0.000276 s⁻¹,3.03e+06 M⁻¹ s⁻¹,1.5,0.0452 nM,6.56e-05 s⁻¹,1.45e+06 M⁻¹ s⁻¹,0.0101 nM,4.8e-05 s⁻¹,4.75e+06 M⁻¹ s⁻¹,2.5,"IL33-167LS Fab (Fab, V domains shown) VH: EVQLVESGGGLVQPGGSLRLSCAASGFTFSSYWMYWVRQAPGKGLEWVASITPNAGEDYYPDSVKGRFTISRDNAKNSLYLQMNSLRAEDTAVYYCARGHYYYTSYSLGYWGQGTLVTVSS VL: DIQMTQSPSSLSASVGDRVTITCKASQNINKHLDWYQQKPGKAPKLLIYFTNNLQTGVPSRFSGSGSGTDFTLTISSLQPEDFATYYCFQYNNGWTFGGGTKVEIKR",Kd [8]: 0.0134 nM; koff [8]: 2.09e-05 s⁻¹; kon [8]: 1.57e+06 M⁻¹ s⁻¹
1.62 nM,0.0038 s⁻¹,2.58e+06 M⁻¹ s⁻¹,0.028 nM,8.07e-05 s⁻¹,2.89e+06 M⁻¹ s⁻¹,,,,,,,,,,,,,,57.8,"IL33-265 Fab (Fab, V domains shown, Fab fragment) VH: EVQLVESGGNLEQPGGSLRLSCTASGFTFSRSAMNWVRRAPGKGLEWVSGISGSGGRTYYADSVKGRFTISRDNSKNTLYLQMNSLSAEDTAAYYCAKDSYTTSWYGGMDVWGHGTTVTVSS VL: DIQMTQSPSSVSASVGDRVTITCRASQGIFSWLAWYQQKPGKAPKLLIYAASSLQSGVPSRFSGSGSGTDFTLTISSLQPEDFAIYYCQQANSVPITFGQGTRLEIKR",
,,,,,,,,,,,,,,,,,,,,"rat 7E8 Fab (Fab, V domains shown, Fab of the parental rat antibody; also called parental rat Fab 7E8) VH: EVQLVETGGGLVQPGRSLKLSCKTSGFTFSSYWMYWIRQAPGKGLEWVSSITPNGGNTYYPDSVKGRFTISRDNAENTIYLQMSSLRSEDTATYFCAKGHYYYTSYSLGYWGQGSLVTVSS VL: EIQMTQSPSVLSASVGDRVTLSCKASQNINKHLDWYQQKLGEAPKLLIYFTNNLQTGIPSRFSGSGSGTDCTLTINSLQPGDVATYFCFQYNNGWTFGGGTKLELD",Kd [15]: 0.0442 nM; koff [15]: 0.000116 s⁻¹; kon [15]: 2.55e+06 M⁻¹ s⁻¹

# Source: patent US20180037644A1 (Pfizer, published 2018)
